# Test results published in article PMC10942606.
# T1: Pcf1_KER* (Schizosaccharomyces pombe, UniProt Q1MTN9 56-170, R147E;K150E;K154E;R161E;K168E)
# T1 sequence: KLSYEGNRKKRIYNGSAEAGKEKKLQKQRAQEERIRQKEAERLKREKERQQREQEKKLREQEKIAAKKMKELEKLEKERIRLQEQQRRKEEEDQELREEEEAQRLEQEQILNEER
# T2: Pcf1_KER-PIP (Schizosaccharomyces pombe, UniProt Q1MTN9 56-185)
# T2 sequence: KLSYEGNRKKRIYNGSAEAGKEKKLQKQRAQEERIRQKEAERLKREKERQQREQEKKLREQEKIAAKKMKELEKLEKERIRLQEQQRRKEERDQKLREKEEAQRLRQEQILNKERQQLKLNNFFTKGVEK
# T3: Pcf1-PIP*;Pcf2;Pcf3 (Schizosaccharomyces …, UniProt Q1MTN9;O13985;Q9Y825 1-544;1-512;1-408, Q172A;L175A;F178A;F179A||)
# T3 sequence 1: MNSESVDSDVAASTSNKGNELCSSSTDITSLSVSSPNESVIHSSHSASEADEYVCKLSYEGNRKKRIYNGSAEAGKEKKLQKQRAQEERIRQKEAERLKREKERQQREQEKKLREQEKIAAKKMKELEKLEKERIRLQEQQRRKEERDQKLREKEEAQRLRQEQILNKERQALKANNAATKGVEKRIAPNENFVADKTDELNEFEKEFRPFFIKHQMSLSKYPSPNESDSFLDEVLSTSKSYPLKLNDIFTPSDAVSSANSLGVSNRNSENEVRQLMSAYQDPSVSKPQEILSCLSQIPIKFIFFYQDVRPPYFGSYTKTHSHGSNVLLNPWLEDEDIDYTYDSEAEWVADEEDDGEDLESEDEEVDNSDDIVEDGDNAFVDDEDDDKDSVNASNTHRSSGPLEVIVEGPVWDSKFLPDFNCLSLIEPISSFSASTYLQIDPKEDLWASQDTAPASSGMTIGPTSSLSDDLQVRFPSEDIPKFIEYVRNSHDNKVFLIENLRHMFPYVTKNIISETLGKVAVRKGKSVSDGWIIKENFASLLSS
# T3 sequence 2: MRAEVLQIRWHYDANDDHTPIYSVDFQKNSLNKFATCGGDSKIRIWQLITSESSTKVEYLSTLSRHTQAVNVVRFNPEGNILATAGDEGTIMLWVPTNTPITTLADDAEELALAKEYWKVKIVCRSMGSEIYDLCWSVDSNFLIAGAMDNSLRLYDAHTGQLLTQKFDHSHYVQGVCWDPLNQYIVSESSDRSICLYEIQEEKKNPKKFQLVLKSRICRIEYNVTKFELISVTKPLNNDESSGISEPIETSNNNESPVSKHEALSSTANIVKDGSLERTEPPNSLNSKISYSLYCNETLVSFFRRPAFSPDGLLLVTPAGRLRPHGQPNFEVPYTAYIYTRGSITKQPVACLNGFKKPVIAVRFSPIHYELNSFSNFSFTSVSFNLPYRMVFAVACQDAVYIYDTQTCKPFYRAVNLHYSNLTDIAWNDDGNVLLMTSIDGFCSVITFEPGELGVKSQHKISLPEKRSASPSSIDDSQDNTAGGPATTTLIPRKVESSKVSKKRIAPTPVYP
# T3 sequence 3: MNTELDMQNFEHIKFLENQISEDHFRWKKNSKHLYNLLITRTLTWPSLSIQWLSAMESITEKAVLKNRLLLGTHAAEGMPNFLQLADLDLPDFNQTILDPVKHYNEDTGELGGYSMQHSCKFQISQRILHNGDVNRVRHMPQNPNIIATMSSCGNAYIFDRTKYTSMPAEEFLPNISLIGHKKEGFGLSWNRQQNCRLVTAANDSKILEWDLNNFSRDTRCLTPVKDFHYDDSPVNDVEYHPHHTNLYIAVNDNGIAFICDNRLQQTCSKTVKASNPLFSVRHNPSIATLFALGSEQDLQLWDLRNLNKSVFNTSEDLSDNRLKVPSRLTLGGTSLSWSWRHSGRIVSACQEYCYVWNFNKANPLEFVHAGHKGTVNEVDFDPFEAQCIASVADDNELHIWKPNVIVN
# T4: Pcf1 WT;Pcf2;Pcf3 (Schizosaccharomyces …, UniProt Q1MTN9;O13985;Q9Y825 1-544;1-512;1-408, ||)
# T4 sequence 1: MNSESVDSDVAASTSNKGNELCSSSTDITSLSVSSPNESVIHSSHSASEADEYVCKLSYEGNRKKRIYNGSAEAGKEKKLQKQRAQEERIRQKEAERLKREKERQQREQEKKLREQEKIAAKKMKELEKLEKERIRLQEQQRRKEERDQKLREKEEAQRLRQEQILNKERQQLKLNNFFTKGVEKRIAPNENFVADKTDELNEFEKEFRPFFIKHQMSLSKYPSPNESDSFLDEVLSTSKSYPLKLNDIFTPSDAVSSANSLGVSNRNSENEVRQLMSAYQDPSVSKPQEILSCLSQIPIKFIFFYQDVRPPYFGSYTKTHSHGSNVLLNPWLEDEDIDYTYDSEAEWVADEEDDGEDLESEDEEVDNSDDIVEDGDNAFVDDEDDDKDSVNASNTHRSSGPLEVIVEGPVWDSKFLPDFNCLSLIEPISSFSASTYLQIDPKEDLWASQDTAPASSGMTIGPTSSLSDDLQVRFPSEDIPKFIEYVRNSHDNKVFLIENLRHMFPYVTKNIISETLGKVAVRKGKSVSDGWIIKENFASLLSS
# T4 sequence 2: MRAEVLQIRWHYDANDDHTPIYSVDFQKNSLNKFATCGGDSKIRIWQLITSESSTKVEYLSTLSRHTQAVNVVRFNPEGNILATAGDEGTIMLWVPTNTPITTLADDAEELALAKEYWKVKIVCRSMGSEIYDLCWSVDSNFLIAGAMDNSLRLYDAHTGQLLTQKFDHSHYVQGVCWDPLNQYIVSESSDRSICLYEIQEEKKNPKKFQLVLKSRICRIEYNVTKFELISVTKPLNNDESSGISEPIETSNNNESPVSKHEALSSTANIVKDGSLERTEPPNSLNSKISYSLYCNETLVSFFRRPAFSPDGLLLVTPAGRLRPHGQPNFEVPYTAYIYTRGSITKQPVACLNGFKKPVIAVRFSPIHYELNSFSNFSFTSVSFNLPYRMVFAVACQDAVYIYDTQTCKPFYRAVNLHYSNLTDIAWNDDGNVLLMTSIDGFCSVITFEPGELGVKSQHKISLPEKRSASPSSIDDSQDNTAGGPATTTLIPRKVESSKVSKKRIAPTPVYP
# T4 sequence 3: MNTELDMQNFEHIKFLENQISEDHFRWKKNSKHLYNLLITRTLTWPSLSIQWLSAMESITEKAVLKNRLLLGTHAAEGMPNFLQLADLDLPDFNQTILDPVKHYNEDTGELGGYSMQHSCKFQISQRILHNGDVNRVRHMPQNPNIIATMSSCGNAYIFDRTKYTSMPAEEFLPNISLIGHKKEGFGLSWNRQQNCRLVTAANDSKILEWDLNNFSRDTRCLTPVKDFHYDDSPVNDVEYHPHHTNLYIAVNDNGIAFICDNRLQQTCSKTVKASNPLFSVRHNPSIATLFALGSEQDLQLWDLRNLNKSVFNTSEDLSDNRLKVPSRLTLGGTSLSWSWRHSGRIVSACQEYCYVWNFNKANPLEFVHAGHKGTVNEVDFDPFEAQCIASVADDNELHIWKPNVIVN
# Key:
# Assay in all cases: MST
# Pcf1_KER* = molecular target: T1, Pcf1_KER*
# Pcf1_KER-PIP = molecular target: T2, Pcf1_KER-PIP
# Pcf1-PIP*;Pcf2;Pcf3 = molecular target: T3, Pcf1-PIP*;Pcf2;Pcf3
# Pcf1 WT;Pcf2;Pcf3 = molecular target: T4, Pcf1 WT;Pcf2;Pcf3
binder,measurement,setting,value
"40 bp dsDNA, Alexa488 (dsDNA) DNA 1: ATCAATATCCACCTGCAGATACTACCAAAAGTGTATTTGG DNA 2: CCAAATACACTTTTGGTAGTATCTGCAGGTGGATATTGAT",apparent K (half saturation),Pcf1_KER*,12.2 ± 0.7 µM
same,apparent K (half saturation),Pcf1_KER-PIP,1900 ± 300 nM
same,apparent K (half saturation),Pcf1-PIP*;Pcf2;Pcf3,700 ± 100 nM
same,apparent K (half saturation),Pcf1 WT;Pcf2;Pcf3,700 ± 100 nM
